Data as given in the supplement of paper PMC12764529.
± gives the half width of the 95% confidence interval.

Experiments:
[1] = folding stability dG unfold (combined trypsin and chymotrypsin); higher = more stable
Summary of the method: (§1)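 Mini-proteins designed to be under 80 residues and free of cysteine were carried in a PA-tagged cDNA display construct and digested with trypsin and with chymotrypsin. Each protease was applied at 11 threefold-diluted concentrations, alongside a no-protease condition, before sequencing. K50 came from Bayesian fitting of the sequencing counts, and unfolding free energy was obtained by comparing it with a sequence-predicted unfolded-state K50 and a shared folded-state K50, for each protease separately or for both together. Designs were retained only if their AlphaFold2 dimer inter-PAE exceeded 15.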

[2] = folding stability dG unfold from trypsin proteolysis; higher = more stable
Summary of the method: as §1

[3] = folding stability dG unfold from chymotrypsin proteolysis; higher = more stable
Summary of the method: as §1

SAWNFKIEEVEVDPNDGRIWFTVKIPPNNPELAEEIAEELQDYGIKVKLINPDLPPGQTIIVQIEVKDPSAG [r14_354_TrROS]
folding stability dG unfold [1]: 1.83 ± 0.18 kcal/mol
folding stability dG unfold [2]: 1.3 ± 0.096 kcal/mol
folding stability dG unfold [3]: 2.09 ± 0.18 kcal/mol

SAGMKVPVTVKMKAEKEEELEKVIKEIKEETGFEFEVEKNPETKEYTVKVYATPEVVEILKKKGFDVESAGG [r19_306_TrMRF]
folding stability dG unfold [1]: 2.77 ± 0.24 kcal/mol
folding stability dG unfold [2]: 1.9 ± 0.14 kcal/mol
folding stability dG unfold [3]: 3.2 ± 0.081 kcal/mol

SAGGSAGGSIEIFKSPEGWYVRIWFPGKPQVIPIDDAEDLKNFEIPIPNGRPIKVEILPPKDLSAGGSAGGS [r12_730_TrROS]
folding stability dG unfold [1]: 2.13 ± 0.059 kcal/mol
folding stability dG unfold [2]: 1.66 ± 0.047 kcal/mol
folding stability dG unfold [3]: 2.32 ± 0.032 kcal/mol

SAGGSAGGSAGGEWRTLYIPIPGMPPEFIETFALELLDDGAKVEDIEWNPNNGYLMITVRSAGGSAGGSAGG [r7_906_TrROS]
folding stability dG unfold [1]: 1.82 ± 0.075 kcal/mol
folding stability dG unfold [2]: 1.37 ± 0.029 kcal/mol
folding stability dG unfold [3]: 2.05 ± 0.056 kcal/mol

SAGGSAGGGKSFSIPVDDAVILDYDPVTKRLTILLPGPGVELVLPLDKVKRIEIDPETGTIHVESAGGSAGG [r6_313_TrMRF]
folding stability dG unfold [1]: 1.64 ± 0.073 kcal/mol
folding stability dG unfold [2]: 1.54 ± 0.022 kcal/mol
folding stability dG unfold [3]: 1.61 ± 0.02 kcal/mol

SAGGNPRPIELYFPEGKIEKIQEKLREEDGYDVDIQMEQNPDGWFKINITFQDPQRVMDILEKFGITSAGGS [r16_172_TrROS]
folding stability dG unfold [1]: 1.26 ± 0.089 kcal/mol
folding stability dG unfold [2]: 1.19 ± 0.058 kcal/mol
folding stability dG unfold [3]: 1.37 ± 0.031 kcal/mol

SAGKVEIKEVSVDPNTDEVKVTFKNPNVPPGTKIVVYPKDGKPIEFETEPNKEVTLTLPKDVEKIEFEGSAG [r14_671_TrMRF]
folding stability dG unfold [1]: 0.0919 ± 0.15 kcal/mol
folding stability dG unfold [2]: -0.298 ± 0.13 kcal/mol
folding stability dG unfold [3]: 0.381 ± 0.14 kcal/mol

SAGGSAGGSAGGMVTTKTVVTFDPSGYITTTETIKVVGTDELLTKTSVTPVEPVPPLLSSAGGSAGGSAGGS [r10_928_JUSTAS]
folding stability dG unfold [1]: 0.828 ± 0.1 kcal/mol
folding stability dG unfold [2]: -0.179 ± 0.2 kcal/mol
folding stability dG unfold [3]: 1.18 ± 0.026 kcal/mol

SAGMVIRDPGDGKYIYISPGSGEIEIFNDGKEKKIPFPPGEEMEIEIDPDDGTITITFPNNGRELEIPLSAG [r5_858_TrROS]
folding stability dG unfold [1]: 0.699 ± 0.16 kcal/mol
folding stability dG unfold [2]: 0.598 ± 0.049 kcal/mol
folding stability dG unfold [3]: 0.846 ± 0.11 kcal/mol

SAGGSAGGSADIGDPSKIKPKPLHFSFPVKIKLSFEYNGPDGVKKTFSLELTFTVVDKGLGSAGGSAGGSAG [r3_380_TrMRF]
folding stability dG unfold [1]: 3.89 ± 0.44 kcal/mol
folding stability dG unfold [2]: 3.15 ± 0.2 kcal/mol
folding stability dG unfold [3]: 4.14 ± 0.21 kcal/mol

SAGGSAGGSAMKTIPVKTKEEAEKLAEELKASGYGEVKKTKSGNIIVKAPDGIDVKIVVPEKSAGGSAGGSA [r18_126_JUSTAS]
folding stability dG unfold [1]: 0.574 ± 0.19 kcal/mol
folding stability dG unfold [2]: 0.098 ± 0.068 kcal/mol
folding stability dG unfold [3]: 0.712 ± 0.072 kcal/mol

SAGGSAGGSASIGGGPTGHSYKITLPNGTEKFLVMDPSTLKELIEKLGVKEVEVKDIGPLQSAGGSAGGSAG [r3_141_JUSTAS]
folding stability dG unfold [1]: 0.482 ± 0.15 kcal/mol
folding stability dG unfold [2]: 0.842 ± 0.077 kcal/mol
folding stability dG unfold [3]: 0.0184 ± 0.27 kcal/mol

SAGGSAGGSAGGERVVRFPYTGTLEDVLEAARRLRRLGGVEVGYDPENGVLLARFKGGGLSAGGSAGGSAGG [r7_219_TrMRF]
folding stability dG unfold [1]: 1.25 ± 0.049 kcal/mol
folding stability dG unfold [2]: 0.54 ± 0.056 kcal/mol
folding stability dG unfold [3]: 1.6 ± 0.046 kcal/mol

SAGGSPISLEVSTSTLPDGTLRVTTTATSPDSSRSYTVTLDFPPSQPEEIPARAAAEAAAIAADPAVASAGG [r13_968_JUSTAS]
folding stability dG unfold [1]: 0.907 ± 0.086 kcal/mol
folding stability dG unfold [2]: -0.552 ± 0.19 kcal/mol
folding stability dG unfold [3]: 1.35 ± 0.058 kcal/mol

SAGGSAKPKVEVEIVDVEFEEVEVNGKKYLVMKMKVKLKETGEYIEVTMVFDLKTNKMYIEVKKLPSAGGSA [r15_528_TrROS_Hall]
folding stability dG unfold [1]: 5.17 ± 0.43 kcal/mol
folding stability dG unfold [2]: 3.49 ± 0.29 kcal/mol
folding stability dG unfold [3]: 5.09 ± 0.24 kcal/mol

SAGGSAGGSGMSPEALAIKEQVKAEHPDLRVEVKEKILPNGTLEITVTFDDGTTETYTIPIGESAGGSAGGS [r20_210_JUSTAS]
folding stability dG unfold [1]: 3.29 ± 0.086 kcal/mol
folding stability dG unfold [2]: 3.01 ± 0.13 kcal/mol
folding stability dG unfold [3]: 3.36 ± 0.048 kcal/mol

SAGGSAGGSGPNIKVSSSTSTYTLPNGKKVTVKTIVIETENSKYLIVVLTDPNGKSIVFIKPLSAGGSAGGS [r12_213_TrMRF]
folding stability dG unfold [1]: 3.89 ± 0.28 kcal/mol
folding stability dG unfold [2]: 3.21 ± 0.23 kcal/mol
folding stability dG unfold [3]: 3.92 ± 0.15 kcal/mol
